The values that follow come from the Immune Epitope Database (IEDB).

Experiment [1] concerns the target HLA-A*02:01. Description: IEDB peptide-MHC binding, purified MHC/competitive/fluorescence; ≥ and ≤ were set here for values at or beyond the usual limits of such assays.
The target in experiment [2] is HLA-B*15:01. The description is as above.
In experiment [3] the target is HLA-A*03:01. The experiment is described as above.
For experiment [4], the target named is HLA-A*11:01. Described as above.
A further experiment addresses HLA-A*24:02. The description is as above.
The next experiment concerns the target HLA-C*15:02. Put plainly: IEDB peptide-MHC binding, purified MHC/direct/fluorescence; filed as Kd, often an IC50 or EC50 that approximates it; ≥ and ≤ were set here for values at or beyond the usual limits of such assays.
The next experiment has as its target HLA-B*58:01. The experiment is described as above.
Experiment [5] concerns the target HLA-A*26:01. The description is as above. The conditions noted are these: source organism: Influenza A virus (A/swine/Miyagi/5/2003(H1N2)).
A further experiment deals with HLA-B*35:01. Put plainly: IEDB peptide-MHC binding, purified MHC/competitive/fluorescence; filed as Kd, often an IC50 or EC50 that approximates it; ≥ and ≤ were set here for values at or beyond the usual limits of such assays. As to conditions: source organism: Influenza A virus H3N2.
A further experiment has as its target HLA-B*08:01. Put plainly: IEDB peptide-MHC binding, purified MHC/direct/fluorescence; filed as Kd, often an IC50 or EC50 that approximates it; ≥ and ≤ were set here for values at or beyond the usual limits of such assays.
In another experiment the target is HLA-B*08:02. The description is as above.
Experiment [6] addresses HLA-A*02:01. The experiment is described as above.
For the next experiment, the target named is HLA-A*69:01. Described as above.
A further experiment concerns the target HLA-C*05:01. Described as above. The conditions noted are these: source organism: Mycobacterium tuberculosis variant bovis BCG str. Pasteur 1173P2.
For another experiment, the target named is HLA-A*01:01. The description is as above.
Another experiment addresses HLA-A*02:11. The experiment is described as above. As to conditions: source organism: Zaire ebolavirus.
For a further experiment, the target named is HLA-A*02:12. Described as above. As to conditions: source organism: Zaire ebolavirus.
Experiment [7] concerns the target HLA-A*03:01. Described as above.
Experiment [8] has as its target HLA-A*11:01. The description is as above. The conditions noted are these: source organism: Zaire ebolavirus.
The target of a further experiment is HLA-A*24:03. The description is as above. The conditions noted are these: source organism: Zaire ebolavirus.
For another experiment, the target named is HLA-A*29:02. The description is as above.
The target of a further experiment is HLA-A*31:01. The experiment is described as above. As to conditions: source organism: Zaire ebolavirus.
The target of another experiment is HLA-A*68:02. The description is as above. As to conditions: source organism: Zaire ebolavirus.
The target in another experiment is HLA-B*07:02. The description is as above.
Experiment [9] concerns the target HLA-B*15:01. Described as above. The conditions noted are these: source organism: Zaire ebolavirus.
A further experiment addresses HLA-B*27:05. The experiment is described as above. The conditions noted are these: source organism: Zaire ebolavirus.
The next experiment has as its target HLA-B*46:01. The experiment is described as above.
In a further experiment the target is HLA-B*48:01. Described as above. The conditions noted are these: source organism: Zaire ebolavirus.
A further experiment deals with HLA-B*57:01. Described as above.
In experiment [10] the target is HLA-A*02:01. Put plainly: IEDB peptide-MHC binding, purified MHC/competitive/fluorescence; filed as Kd, often an IC50 or EC50 that approximates it; ≥ and ≤ were set here for values at or beyond the usual limits of such assays. As to conditions: source organism: Zaire ebolavirus.
Experiment [11] deals with HLA-A*26:01. The experiment is described as above. The conditions noted are these: source organism: Zaire ebolavirus.
Experiment [12] has as its target HLA-B*18:01. The description is as above. As to conditions: source organism: Zaire ebolavirus.
The next experiment concerns the target HLA-B*27:03. The experiment is described as above. As to conditions: source organism: Zaire ebolavirus.
A further experiment addresses HLA-B*39:01. Described as above. As to conditions: source organism: Zaire ebolavirus.
For experiment [13], the target named is HLA-B*18:01. Description: IEDB peptide-MHC binding, purified MHC/direct/fluorescence; filed as Kd, often an IC50 or EC50 that approximates it; ≥ and ≤ were set here for values at or beyond the usual limits of such assays. As to conditions: source organism: Brucella suis.
For a further experiment, the target named is HLA-B*40:01. The description is as above. As to conditions: source organism: Brucella suis.
The target in a further experiment is HLA-B*44:02. The experiment is described as above. The conditions noted are these: source organism: Brucella suis.
The mark [14] stands for this setting: source organism: Zaire ebolavirus.
[15] abbreviates: source organism: Sudan ebolavirus.
The mark [16] stands for this setting: source organism: Vaccinia virus.
Where [17] appears, read: source organism: Vibrio vulnificus CMCP6.
[18] abbreviates: source organism: Treponema denticola.

The IC50 is the concentration that inhibits the measured activity by half. High values mean lower potency, low ones higher potency. What is called Kd is the free concentration of one partner at which half of the binding sites on the other are occupied at equilibrium, for simple one-to-one binding. A lower Kd goes with a tighter complex.

AVSHLTTLA: the IC50 was 3.08 µM with HLA-A*02:01 [1] (setting [14]) and not below 135 µM with HLA-B*15:01 [2] (setting [14]).

IIIAVARKH: the IC50 in the experiment with HLA-A*02:01 [1] (source organism: Variola virus) was found to be 50.9 µM; with HLA-A*03:01 [3] (source organism: Variola virus), 35.5 µM; with HLA-A*11:01 [4] (source organism: Variola virus), 14.5 µM; with HLA-A*24:02 (source organism: Variola virus), 2.98 µM; with HLA-B*15:01 [2] (source organism: Variola virus), 36.4 µM.

Take ILFQKAFSM: the IC50 with HLA-A*02:01 [1] (setting [15]) was 0.626 µM; with HLA-A*03:01 [3] (setting [15]), 15.7 µM; with HLA-A*11:01 [4] (setting [15]), 54.8 µM; in the experiment with HLA-A*24:02 (setting [15]), 0.336 µM; with HLA-B*15:01 [2] (setting [15]), 4.24 µM.

ILMEHIHKL returned a dissociation constant (Kd) with HLA-C*15:02 (source organism: Rattus norvegicus) of 0.239 µM.

KLFSYGTLI: the figures for the 50% inhibitory concentration (IC50) with HLA-A*02:01 [1] (source organism: Variola virus), with HLA-A*03:01 [3] (source organism: Variola virus) and in the experiment with HLA-B*15:01 [2] (source organism: Variola virus) were 0.61 µM, 5.5 µM and 26.2 µM, respectively.

For the sequence KSRRFTVRF, the values for the Kd in the experiment with HLA-B*58:01 (source organism: Mycobacterium tuberculosis) and in the experiment with HLA-C*15:02 (source organism: Mycobacterium tuberculosis variant bovis BCG str. Pasteur 1173P2) were 0.422 µM and not below 20 µM, respectively.

For the sequence LTITYSSSM, the Kd in the experiment with HLA-A*26:01 [5] was found to be 0.0618 µM; with HLA-B*35:01, 1.18 µM.

As for RAFRNLNVT, the IC50 is 48.3 µM in the experiment with HLA-A*02:01 [1] (setting [16]) and not below 77.9 µM with HLA-B*15:01 [2] (setting [16]).

For the sequence RGRKRFHTL, the results for the Kd with HLA-B*08:01 (setting [17]) and with HLA-B*08:02 (setting [17]) were 0.009 µM and 6.76 µM, respectively.

RQDEVGTPF: the Kd was 2.01 µM with HLA-A*02:01 [6] (setting [18]), not below 20 µM with HLA-A*69:01 (setting [18]) and not above 0.001 µM with HLA-C*05:01.

In the case of SQVPKLLLW, the IC50 in the experiment with HLA-B*15:01 [2] (source organism: Variola virus) is not below 121 µM.

Take TVCGGIMFL: the Kd in the experiment with HLA-C*15:02 (source organism: human gammaherpesvirus 4) was 2.47 µM.

On to VTTPARTAF, for which the values for the Kd in the experiment with HLA-B*58:01 (source organism: Mycobacterium avium 104) and with HLA-C*15:02 (source organism: Mycobacterium tuberculosis C) were 1.1 µM and not below 20 µM, respectively.

On to YDRLASTVI, for which the IC50 in the experiment with HLA-A*24:02 (setting [15]) is 2.49 µM. In addition, the Kd with HLA-A*01:01 (setting [14]), in the experiment with HLA-A*02:11, in the experiment with HLA-A*02:12, with HLA-A*03:01 [7] (setting [14]), with HLA-A*11:01 [8] and with HLA-A*24:03 was not below 20 µM throughout. For the same sequence, the Kd with HLA-A*29:02 (setting [14]), with HLA-A*31:01, with HLA-A*68:02, with HLA-A*69:01 (setting [14]), with HLA-B*07:02 (setting [14]) and in the experiment with HLA-B*08:01 (setting [14]) was not below 20 µM in each case. The equilibrium dissociation constant (Kd) in the experiment with HLA-B*15:01 [9], with HLA-B*27:05, with HLA-B*46:01 (setting [14]), with HLA-B*48:01, with HLA-B*57:01 (setting [14]) and with HLA-B*58:01 (setting [14]) was not below 20 µM throughout. Further, the Kd with HLA-A*02:01 [10], with HLA-A*26:01 [11], in the experiment with HLA-B*18:01 [12], in the experiment with HLA-B*27:03 and in the experiment with HLA-B*39:01 was not below 20 µM in each case.

Turning to YFNVLDEKY, the IC50 is 33 µM in the experiment with HLA-A*24:02 (setting [16]) and not below 283 µM with HLA-B*15:01 [2] (setting [16]).

With YQRRRRFAI, the Kd with HLA-A*01:01 (source organism: Brucella suis), in the experiment with HLA-A*02:01 [6] (source organism: Brucella suis), with HLA-A*03:01 [7] (source organism: Brucella suis), with HLA-A*29:02 (source organism: Brucella suis), in the experiment with HLA-A*69:01 (source organism: Brucella suis) and with HLA-B*07:02 (source organism: Brucella suis) was not below 20 µM each time. The Kd with HLA-B*08:02 (source organism: Brucella suis 1330) was 0.367 µM; in the experiment with HLA-B*18:01 [13] it was not below 20 µM; with HLA-B*40:01, not below 20 µM; with HLA-B*44:02 it was not below 20 µM; with HLA-B*46:01 (source organism: Brucella suis) it was not below 20 µM; in the experiment with HLA-B*57:01 (source organism: Brucella suis), not below 20 µM. In the experiment with HLA-B*58:01 (source organism: Brucella suis), the Kd is not below 20 µM.
